In general, IC50 refers to the concentration needed to halve the response being measured.

Eleven substances from US20200024330A1 can be followed below.

Common to all, as to assay: cell-based or functional assay
The target in test [1] is HIV-1 APV6 envelope glycoprotein (Env) (HIV-1).
Test [2] concerns the target HIV-1 Env of isolate MGRM-G-024 (subtype G) (HIV-1).
Test [3] addresses HIV-1 Env of isolate MGRM-G-001 (subtype G) (HIV-1).
For test [4], the target named is HIV-1 Env of isolate MGRM-G-014 (subtype G) (HIV-1).
The target in test [5] is HIV-1 Env of isolate MGRM-G-016 (subtype G) (HIV-1).
The target of test [6] is HIV-1 Env of isolate MGRM-A-012 (HIV-1).
Test [7] addresses HIV-1 Env of isolate MGRM-A-011 (HIV-1).
The target in test [8] is HIV-1 MGRM-C-007 Env (HIV-1).
The target of test [9] is HIV-1 Env of isolate MGRM-F1-006 (HIV-1).
The target of test [10] is HIV-1 94UG103 envelope protein (Env) on pseudotyped virus (HIV-1 isolate 94UG103).
Test [11] deals with HIV-1 Env of isolate MGRM-F1-010 (HIV-1).
In test [12] the target is HIV-1 MGRM-C-028 envelope glycoprotein (Env) (HIV-1).
Test [13] concerns the target HIV-1 IAVI-C18 envelope glycoprotein (Env) on pseudovirus (HIV-1).
Test [14] has as its target HIV-1 Env of isolate MG RM-D-020 (subtype D) (HIV-1).
In test [15] the target is HIV-1 Env of isolate MG RM-AG-003 (HIV-1).
For test [16], the target named is HIV-1 Env of isolate MG RM-AG-009 (HIV-1).
Test [17] addresses HIV-1 JR-CSF Env P470A (HIV-1 (isolate JR-CSF)) (UniProt P20871).
Test [18] deals with HIV-1 MGRM-Chronic-B-017 Env (pseudovirus) (HIV-1).
For test [19], the target named is HIV-1 MGRM-AG-005 envelope glycoprotein (Env) on pseudovirus (HIV-1).
The target in test [20] is HIV-1 Env of isolate MG RM-D-003 (subtype D) (HIV-1).
For test [21], the target named is HIV-1 MGRM-Chronic-B-004 Env (pseudovirus) (HIV-1).
In test [22] the target is HIV-1 MGRM-Chronic-B-010 Env (pseudovirus) (HIV-1).
The target of test [23] is HIV-1 Env of isolate 93MW959 (pseudovirus) (HIV-1 isolate 93MW959, subtype C).
Test [24] concerns the target HIV-1 JR-CSF Env R480A (HIV-1 (isolate JR-CSF)) (UniProt P20871).
For test [25], the target named is HIV-1 Env of isolate MGRM-C-007 (pseudovirus) (HIV-1 isolate MGRM-C-007, subtype C).
For test [26], the target named is HIV-1 Env of isolate 92WR009 (HIV-1).
In test [27] the target is HIV-1 92TH021 Env (on pseudovirus) (HIV-1).
Test [28] addresses HIV-1 94UG103 Env (on pseudovirus) (HIV-1).
Test [29] addresses HIV-1 MGRM-C-027 Env (on pseudovirus) (HIV-1).
Test [30] has as its target HIV-1 envelope glycoprotein (Env) of isolate MGRM-C-022, on pseudovirus (HIV-1).
Test [31] addresses HIV-1 MGRM-C-028 Env (on pseudovirus) (HIV-1).
Test [32] has as its target HIV-1 93UG077 Env (on pseudovirus) (HIV-1).
In test [33] the target is HIV-1 envelope glycoprotein (Env) of isolate MGRM-C-023, on pseudovirus (HIV-1).
Test [34] deals with HIV-1 envelope glycoprotein (Env) of isolate MGRM-C-028, on pseudovirus (HIV-1).
In test [35] the target is aMLV envelope protein (on pseudovirus, negative control) (aMLV).

Chain of PGT-142 (4995_E20) (antibody) (VH): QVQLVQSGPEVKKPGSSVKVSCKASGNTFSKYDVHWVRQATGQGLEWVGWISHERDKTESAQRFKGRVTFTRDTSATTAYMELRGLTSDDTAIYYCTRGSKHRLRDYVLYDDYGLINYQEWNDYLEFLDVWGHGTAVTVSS
Chain of PGT-142 (4995_E20) (antibody) (VL): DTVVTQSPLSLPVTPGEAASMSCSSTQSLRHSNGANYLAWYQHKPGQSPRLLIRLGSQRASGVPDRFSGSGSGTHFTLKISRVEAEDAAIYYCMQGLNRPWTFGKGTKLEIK
Chain of PGT-144 (4970_K22) (antibody) (VH): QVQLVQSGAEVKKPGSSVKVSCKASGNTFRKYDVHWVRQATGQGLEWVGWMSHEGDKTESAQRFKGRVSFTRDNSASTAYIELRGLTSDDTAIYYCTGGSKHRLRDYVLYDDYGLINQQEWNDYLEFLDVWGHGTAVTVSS
Chain of PGT-144 (4970_K22) (antibody) (VL): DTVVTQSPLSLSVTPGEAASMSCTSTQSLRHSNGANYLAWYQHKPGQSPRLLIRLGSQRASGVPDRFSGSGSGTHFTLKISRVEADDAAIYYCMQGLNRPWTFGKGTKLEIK
Chain of PGT-141 (4964_G22; 4993_K13) (antibody) (VH): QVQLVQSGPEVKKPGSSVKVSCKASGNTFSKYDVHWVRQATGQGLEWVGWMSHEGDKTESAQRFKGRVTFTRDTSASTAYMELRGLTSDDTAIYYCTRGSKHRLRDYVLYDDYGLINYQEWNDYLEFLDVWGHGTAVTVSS
Chain of PGT-143 (4980_N08) (antibody) (VH): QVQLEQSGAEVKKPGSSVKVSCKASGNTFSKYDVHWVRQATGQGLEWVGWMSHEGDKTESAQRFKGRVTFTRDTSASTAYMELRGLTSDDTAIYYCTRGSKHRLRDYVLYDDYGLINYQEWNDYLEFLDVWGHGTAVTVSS
Chain of PGT-143 (4980_N08) (antibody) (VL): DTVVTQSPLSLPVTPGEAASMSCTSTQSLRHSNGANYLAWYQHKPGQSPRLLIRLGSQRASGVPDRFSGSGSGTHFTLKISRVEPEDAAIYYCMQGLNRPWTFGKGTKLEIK

For 1496_C09 (PG9) (TCN-109) (antibody), the results for the IC50 neutralization in test [1] and in test [12] were 0.214 µg/mL and 0.121 µg/mL, respectively. For the same substance, the neutralization IC50 in test [2] is 0.163 µg/mL; in test [3], 0.166 µg/mL; in test [4] it was 16.5 µg/mL; in test [5], 1.36 µg/mL. For the same substance, the IC50 (µg/mL), pseudovirus neutralization in test [6] was determined as 19.3 µg/mL; in test [7], 0.033 µg/mL; in test [9], 7.25 µg/mL; in test [11], 0.012 µg/mL. In [8], the IC50 worked out at 0.09 µg/mL. In test [10], this substance gave an IC50, pseudovirus neutralization, 1 hour Virus/Ab Incubation of 0.334 µg/mL. The IC50, pseudovirus neutralization, 18 hour Virus/Ab Incubation in test [10] was 0.0942 µg/mL. In [13], this substance yielded an IC90 (pseudovirus neutralization) of 0.866 µg/mL.

Regarding 4858_P08 (PGT-123) (antibody), the results for the IC50 (µg/mL), pseudovirus neutralization in [14] and in [20] were 0.018 µg/mL and 3.74 µg/mL, respectively. The neutralization IC50 in test [15] was greater than 50 µg/mL; in [16], 0.073 µg/mL. In addition, the Fold IC50 increase relative to wild-type in test [17] stood at 0.8 fold; in [24] it was 1.7 fold. In addition, the IC50, pseudovirus neutralization in test [18] was greater than 50 µg/mL; in test [19] it was 0.104 µg/mL; in test [21], 0.008 µg/mL; in test [22], 0.009 µg/mL. The substance also came in with an IC50 (ug/ml), neutralizing activity in test [19] of 0.104 µg/mL. The substance also displayed an IC80, pseudovirus neutralization in [19] of 1.28 µg/mL. Moreover, the IC90 (pseudovirus neutralization) in [19] was 6.38 µg/mL. The substance further displayed an IC95, pseudovirus neutralization in test [19] greater than 10 µg/mL. For the same substance, the IC50 (µg/mL) neutralization in [23] was 0.011 µg/mL; in test [25], 0.547 µg/mL.

Take 5123_A06 (PGT-125) (antibody): the IC50 (µg/mL), pseudovirus neutralization in [14] is greater than 50 µg/mL; in test [20], 0.065 µg/mL. Besides, the values for the neutralization IC50 in test [15], in [16] and in test [19] were greater than 50 µg/mL, 0.026 µg/mL and greater than 10 µg/mL, respectively. For the same substance, the Fold IC50 increase relative to wild-type came to 1.6 fold in [17] and 2.1 fold in [24]. For the same substance, the figures for the IC50, pseudovirus neutralization in test [18], in test [21] and in [22] were greater than 50 µg/mL, 0.007 µg/mL and 0.006 µg/mL, respectively. The substance further returned an IC50 (ug/ml), neutralizing activity in test [19] greater than 10 µg/mL. In addition, the neutralization IC80 in [19] was greater than 10 µg/mL. The substance further displayed a neutralization IC90 in test [19] greater than 10 µg/mL. This substance showed a neutralization IC95 in test [19] greater than 10 µg/mL. Besides, the IC50 (µg/mL) neutralization is 37.5 µg/mL in test [23] and greater than 50 µg/mL in test [25].

Turning to 5141_B17 (PGT-126) (antibody), the values for the IC50 (µg/mL), pseudovirus neutralization in test [14] and in test [20] were 0.023 µg/mL and 0.021 µg/mL, respectively. Also, the neutralization IC50 in test [15] was greater than 50 µg/mL; in test [16], 0.03 µg/mL. In addition, the Fold IC50 increase relative to wild-type in test [17] was 2.7 fold; in test [24], 1.9 fold. The values for the IC50, pseudovirus neutralization in test [18], in [21] and in test [22] were greater than 50 µg/mL, 0.01 µg/mL and 0.005 µg/mL, respectively. The substance further showed an IC50 (ug/ml), neutralizing activity in test [19] of 1.35 µg/mL. For the same substance, the IC50 (µg/mL) neutralization in test [23] came to 9.44 µg/mL; in test [25], 25.3 µg/mL.

As for PGT-121 (antibody), the figures for the IC50 (µg/mL), pseudovirus neutralization in test [26], in test [6] and in [7] were 1.74 µg/mL, 0.092 µg/mL and greater than 50 µg/mL, respectively. Further, the IC50 neutralization came out at 0.0423 µg/mL in test [1] and 1.19 µg/mL in [12].

As for PGT-122 (antibody), the IC50 (µg/mL), pseudovirus neutralization in test [26] is 42.4 µg/mL; in test [6] it was 0.257 µg/mL; in test [7] it was greater than 50 µg/mL. Further, the IC50 neutralization in test [1] was determined as 0.0851 µg/mL; in test [12], 2.06 µg/mL.

Turning to PGT-141 (4964_G22; 4993_K13) (antibody), the neutralization IC50 in test [2] was 0.051 µg/mL; in test [3], 0.392 µg/mL; in test [4], 0.222 µg/mL; in test [5] it was 4.69 µg/mL. Also, the IC50 (ug/ml), pseudovirus neutralization in test [27] was 0.0019 µg/mL; in test [28], greater than 10 µg/mL; in test [29], 0.822 µg/mL; in test [31], 2.35 µg/mL; in test [32], greater than 10 µg/mL; in test [35], greater than 10 µg/mL. Further, the IC50, pseudovirus neutralization was 0.381 µg/mL in [30], 0.153 µg/mL in test [33] and 13.8 µg/mL in test [34].

For the substance PGT-142 (4995_E20) (antibody), the neutralization IC50 is 0.054 µg/mL in [2], 0.362 µg/mL in test [3], 0.076 µg/mL in test [4] and 8.17 µg/mL in test [5]. The IC50 (ug/ml), pseudovirus neutralization in test [27] is 0.0022 µg/mL; in test [28], greater than 10 µg/mL; in test [29], 0.272 µg/mL; in [31] it was 1.23 µg/mL; in [32] it was greater than 10 µg/mL; in [35], greater than 10 µg/mL. Besides, the IC50, pseudovirus neutralization in [30] came out at 0.086 µg/mL; in [33], 0.087 µg/mL; in test [34], 2.12 µg/mL.

For the substance PGT-143 (4980_N08) (antibody), the neutralization IC50 in [2] worked out at 0.048 µg/mL; in test [3], 0.423 µg/mL; in test [4], 0.107 µg/mL; in test [5], 7.6 µg/mL. In addition, the IC50 (ug/ml), pseudovirus neutralization was 0.0028 µg/mL in test [27]; greater than 10 µg/mL in test [28]; 0.505 µg/mL in [29]; 1.82 µg/mL in test [31]; greater than 10 µg/mL in test [32]; greater than 10 µg/mL in [35]. For the same substance, the IC50, pseudovirus neutralization in [30] was found to be 0.103 µg/mL; in test [33], 0.148 µg/mL; in [34], 12.4 µg/mL.

Consider PGT-144 (4970_K22) (antibody), for which the neutralization IC50 was 7.92 µg/mL in test [2], greater than 50 µg/mL in [3], 0.562 µg/mL in [4] and greater than 50 µg/mL in [5]. In addition, the IC50 (ug/ml), pseudovirus neutralization in test [27] is 0.0934 µg/mL; in test [28] it was greater than 10 µg/mL; in test [29] it was greater than 10 µg/mL; in test [31], greater than 10 µg/mL; in test [32] it was greater than 10 µg/mL; in [35], greater than 10 µg/mL. Further, the IC50, pseudovirus neutralization was 2.58 µg/mL in [30], 0.38 µg/mL in test [33] and greater than 50 µg/mL in test [34].

On to PGV04 (antibody), for which the neutralization IC50 was 0.033 µg/mL in test [2], greater than 50 µg/mL in test [3], 0.056 µg/mL in test [4] and 0.019 µg/mL in test [5]. Also, the IC50 (µg/mL), pseudovirus neutralization in test [6] was 0.225 µg/mL; in test [7], 0.09 µg/mL; in [9], greater than 50 µg/mL; in [11], 0.184 µg/mL.
